{
  "source": "patent US20170298330A1",
  "target": "nMagHigh1-C714 (fused polypeptide of nMagHigh1 and a C-terminal side fragment of Cas9)",
  "test": "cell-based or functional assay",
  "data": [
    {"substance": "N713-pMag (fused polypeptide of an N-terminal side fragment of Cas9 and pMag)", "values": [
      {"measurement": "frequency of HDR (integration of a HindIII site) at human EMX1 locus, RFLP analysis, blue light", "result": 7.2, "unit": "%"},
      {"measurement": "indel frequency at EMX1 locus after 0, 1, 3 and 6 hours of blue light, T7E1 assay", "result": "< 1", "unit": "%"},
      {"measurement": "light-dependent Cas9 activity, luciferase plasmid HDR assay in HEK293T cells", "result": 16.4, "unit": "times"}
    ]}
  ]
}
